From patent publication US20250206837A1 (ELIXIRON IMMUNOTHERAPEUTICS HONG KONG, published 2025) come the findings set out here.

Numbering of substitutions follows the chain as printed. Names and notes keep the numbering of the source. Values joined by “and” are separate entries in the source; they are usually repeats but may differ in a detail not shown here. Identical values can stand only once.

The target of assay [1] is T1, Recombinant His-tagged mouse CD36.ECD protein (Sino Biological) (mouse, UniProt Q08857 30-439).
T1 construct: Bought protein; also called mCD36.ECD; mCD36; not shown: His tag
T1 sequence (Q08857 30-439 limits assumed): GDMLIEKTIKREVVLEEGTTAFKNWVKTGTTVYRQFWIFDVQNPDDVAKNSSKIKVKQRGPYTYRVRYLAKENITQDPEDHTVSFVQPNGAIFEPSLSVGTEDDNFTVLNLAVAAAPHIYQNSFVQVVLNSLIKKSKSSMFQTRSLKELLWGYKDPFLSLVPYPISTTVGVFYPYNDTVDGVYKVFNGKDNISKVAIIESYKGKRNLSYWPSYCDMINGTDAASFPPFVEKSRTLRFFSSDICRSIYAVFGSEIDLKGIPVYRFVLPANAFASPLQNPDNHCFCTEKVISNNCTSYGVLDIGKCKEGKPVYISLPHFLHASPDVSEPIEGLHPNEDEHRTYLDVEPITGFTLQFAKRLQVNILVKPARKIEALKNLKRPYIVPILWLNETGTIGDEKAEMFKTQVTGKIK
Kind of assay: ELISA, coated His-tagged mouse CD36.ECD. As to the method: (§1) ELISA materials and methods: Recombinant His-tagged human CD36.ECD protein or His-tagged mouse CD36.ECD protein (both from Sino Biological) was immobilized on 96 well microtiter plate at a concentration of 1 μg/mL in Coating Solution (SeraCare) overnight at 4° C. The wells were washed with wash solution (0.05% Tween20 in PBS) and blocked with 1% BSA in PBS. Serial dilutions of anti-CD36 antibodies were added to wells. After incubation at 37° C. for 1 h, the wells were washed with wash solution. Peroxidase-conjugated Goat anti-human kappa Light chain antibody (Sigma) was applied to each well at 37° C. for 1 h incubation. After washing, the wells were developed with TMB substrate for 5-10 min at room temperature and then stopped with 1 N HCl. Thereafter absorbance was measured at 450 nm and 650 nm. EC50 values were calculated through GraphPad Prism7.
(§2) Results: ELISA data plots showing binding to either human CD36.ECD or mouse CD36.ECD are depicted in FIG. 1A and FIG. 1B, respectively, for the full-length IgG anti-CD36 antibody 12P109, and additional positive clones, 12P102, 12P103, 12P104, 12P105, 12P106, 12P107, 12P110 and 12P212.

The target in assay [2] is T2, Recombinant His-tagged human CD36.ECD protein (Sino Biological) (human, UniProt P16671 30-439).
T2 construct: Bought protein; also called hCD36.ECD; hCD36; not shown: His tag
T2 sequence (P16671 30-439 limits assumed): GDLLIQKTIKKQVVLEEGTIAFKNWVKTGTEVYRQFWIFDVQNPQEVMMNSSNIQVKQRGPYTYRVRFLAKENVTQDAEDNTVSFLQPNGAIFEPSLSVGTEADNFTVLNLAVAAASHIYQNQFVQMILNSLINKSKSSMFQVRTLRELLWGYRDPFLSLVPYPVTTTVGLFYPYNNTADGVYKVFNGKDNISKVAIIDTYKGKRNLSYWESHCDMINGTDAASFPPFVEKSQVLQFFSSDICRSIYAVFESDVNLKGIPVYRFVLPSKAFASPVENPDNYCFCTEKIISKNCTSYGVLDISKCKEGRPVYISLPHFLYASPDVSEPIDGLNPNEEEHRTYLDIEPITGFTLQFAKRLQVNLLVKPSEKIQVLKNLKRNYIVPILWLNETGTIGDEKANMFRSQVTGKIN
Kind of assay: BLI (Octet), antibody on AHC sensor, His-tagged hCD36.ECD in solution, 1:1 fit. Here is the method:
BLI assay materials and method: Kinetic rate constants, ka and kd, for binding of the anti-CD36 antibodies to human CD36 were measured by Bio-Layer Interferometry (BLI) (ForteBio Octet RED96). […] Rate constants were calculated by curve fitting analyses (1:1 Langmuir model) of binding response with a 2.5-minute association and 5-minute dissociation interaction time.

The target of assay [3] is T1, Recombinant His-tagged mouse CD36.ECD …. The assay can be described thus: ELISA, coated mouse CD36.ECD (FIG. 1D). As to the method:
as §1
(§3) ELISA data plots showing binding of anti-CD36 antibodies to recombinant human CD36.ECD or mouse CD36.ECD coated on ELISA plates are depicted in FIG. 1C and 1D, respectively.
Background: ELISA stands for enzyme-linked immunosorbent assay.

The target in assay [4] is T3, mouse CD36-His overexpressed on stable F293 cells (mouse, UniProt Q08857 1-472). The assay can be described thus: cell-based or functional assay.
T3 sequence (Q08857 whole entry): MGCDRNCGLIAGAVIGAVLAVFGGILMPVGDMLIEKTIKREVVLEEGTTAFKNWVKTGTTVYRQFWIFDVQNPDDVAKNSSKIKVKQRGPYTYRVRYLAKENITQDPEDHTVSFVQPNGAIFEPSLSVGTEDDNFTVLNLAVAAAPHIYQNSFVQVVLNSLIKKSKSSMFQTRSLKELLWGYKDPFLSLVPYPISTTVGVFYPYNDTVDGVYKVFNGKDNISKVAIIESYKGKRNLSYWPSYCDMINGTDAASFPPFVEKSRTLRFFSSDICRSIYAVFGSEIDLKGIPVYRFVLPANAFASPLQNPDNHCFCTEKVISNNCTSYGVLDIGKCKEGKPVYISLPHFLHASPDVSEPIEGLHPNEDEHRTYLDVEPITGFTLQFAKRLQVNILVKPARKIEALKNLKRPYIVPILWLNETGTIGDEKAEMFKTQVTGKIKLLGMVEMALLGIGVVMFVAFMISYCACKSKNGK
Assay [5] concerns the target T4, full-length human CD36-Flag overexpressed on stable F293 cells (human, UniProt P16671 2-472). Kind of assay: cell-based or functional assay.
The target of assay [6] is T2, Recombinant His-tagged human CD36.ECD …. The assay can be described thus: ELISA, coated human CD36.ECD (FIG. 1C). As to the method: as §1, §3
The target is the same in assay [7]. The assay can be described thus: ELISA, coated His-tagged human CD36.ECD. As to the method:
as §1, §2

For assay [8] the target is unchanged. The assay can be described thus: ELISA, coated human CD36.ECD (FIG. 2A). Here is the method: as §1
(§4) The competitor anti-CD36 antibody ONA, which is derived from clone “ONA-0-v1” as disclosed in WO2021176424A1 in hIgG4-S228P-FALA format.

Assay [9] has as its target T5, rhesus CD36-His overexpressed on stable F293 cells (rhesus, UniProt P16671 2-472 (human entry)).
T5 construct: Gene segment from Sino Biological; also called F293/rhesusCD36; not shown: His tag
The assay can be described thus: flow cytometry, F293 cells overexpressing rhesus CD36. The source says: (§5) After washing with FACS buffer (2% FBS in PBS), the cells were stained with anti-human IgG-Alexa Fluor 647 and analyzed by Attune NxT Flow Cytometer (Thermo Scientific).
In general terms: Flow cytometry measures light scatter and fluorescence of single cells or particles in a stream.

In assay [10] the target is T4, full-length human CD36-Flag …. Kind of assay: flow cytometry, F293 cells overexpressing human CD36.
Excerpt: as §5

Assay [11] addresses T3, mouse CD36-His overexpressed on stable …. The assay can be described thus: flow cytometry, F293 cells overexpressing mouse CD36.
Excerpt: as §5

In assay [12] the target is T2, Recombinant His-tagged human CD36.ECD …. Kind of assay: ELISA, coated human CD36.ECD (FIG. 2F). Here is the method:
as §1, §4

The target is the same in assay [13]. Kind of assay: ELISA, coated human CD36.ECD (FIG. 2E). As to the method: as §1, §4
For assay [14] the target is unchanged. Kind of assay: hCD36 ELISA, plate coated with human CD36.ECD, antibody titrated, OD (450-650) nm. Here is the method:
as §1, §4

T4 sequence (P16671 2-472): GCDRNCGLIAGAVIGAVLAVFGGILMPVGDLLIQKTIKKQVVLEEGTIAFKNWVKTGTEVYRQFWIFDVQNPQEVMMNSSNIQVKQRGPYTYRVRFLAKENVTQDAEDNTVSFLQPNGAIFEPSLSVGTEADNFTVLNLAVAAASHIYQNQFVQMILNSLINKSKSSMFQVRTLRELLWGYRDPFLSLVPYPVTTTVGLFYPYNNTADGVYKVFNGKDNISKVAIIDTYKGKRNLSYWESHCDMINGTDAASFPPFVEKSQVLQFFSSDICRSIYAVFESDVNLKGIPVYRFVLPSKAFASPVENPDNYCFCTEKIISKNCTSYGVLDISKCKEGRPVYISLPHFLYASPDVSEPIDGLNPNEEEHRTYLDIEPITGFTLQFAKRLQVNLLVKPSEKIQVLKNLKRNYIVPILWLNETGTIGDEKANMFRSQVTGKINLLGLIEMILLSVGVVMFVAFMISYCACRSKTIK
T5 sequence (P16671 other isoform, or with tags, fused parts or gaps): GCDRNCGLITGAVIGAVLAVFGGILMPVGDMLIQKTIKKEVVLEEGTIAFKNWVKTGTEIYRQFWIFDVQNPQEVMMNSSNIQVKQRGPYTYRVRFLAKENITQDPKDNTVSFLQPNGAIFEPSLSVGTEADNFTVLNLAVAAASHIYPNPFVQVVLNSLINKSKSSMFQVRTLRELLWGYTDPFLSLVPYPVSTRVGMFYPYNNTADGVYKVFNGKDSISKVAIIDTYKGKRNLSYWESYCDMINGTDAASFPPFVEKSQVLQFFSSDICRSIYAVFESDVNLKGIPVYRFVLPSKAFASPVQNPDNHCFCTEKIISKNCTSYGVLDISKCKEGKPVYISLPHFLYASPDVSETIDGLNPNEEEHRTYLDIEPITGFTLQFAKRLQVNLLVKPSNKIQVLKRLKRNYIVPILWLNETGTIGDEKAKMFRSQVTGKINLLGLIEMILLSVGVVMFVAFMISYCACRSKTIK

B1: 12P109 (antibody, human IgG1, kappa, N297A, V domains shown)
VH: EVQLVESGGGLVQPGGSLRLSCAASGFTISSFGIHWVRQAPGKGLEWVAWIAPYGGYTYYADSVKGRFTISADTSKNTAYLQMNSLRAEDTAVYYCARSFFGYFDYWGQGTLVTVSS
VL: DIQMTQSPSSLSASVGDRVTITCRASQDVSNWVAWYQQKPGKAPKLLISTSTSLYSGVPSRFSGSGSGTDFTLTISSLQPEDFATYYCQQYYTLPFTFGQGTKVEIKR
notes: Full-length human IgG1-N297A, kappa; also called 12P109 (IgG1)
With B1, the EC50 in assay [1] came to 0.137 nM; in [3], 9.45 nM; in assay [6], 43.2 nM; in assay [7], 0.213 nM; in [8], 1.53 nM. For the same molecule, in [2], the Kd amounted to 18.5 nM. Besides, in assay [2], the koff was found to be 0.00963 s⁻¹. For the same molecule, the kon in assay [2] amounted to 522000 M⁻¹ s⁻¹. Besides, the “oxLDL uptake IC50 (nM), F293/mCD36” value in assay [4] came to 0.86 nM. The “oxLDL uptake IC50 (nM), F293/hCD36” value in [5] was found to be 0.401 nM.

B2: 117_57E (antibody, V domains shown)
VH: B1 VH with Y57E
VL: B1 VL with T50Y, S51A, Y91H, Y92S, T93N, L94A, F96L
notes: full-length IgG, human kappa
Turning to B2, the EC50 in [9] was 0.419 µg/mL and 0.362 µg/mL; in assay [10] it was 0.11 µg/mL and 0.091 µg/mL; in [11] it was 0.331 µg/mL and 0.279 µg/mL; in assay [12] it was 0.206 nM; in assay [8], 0.0492 nM. In addition, the “oxLDL uptake IC50 (nM), F293/mCD36” value in [4] was 0.796 nM. Moreover, the “oxLDL uptake IC50 (nM), F293/hCD36” value in assay [5] worked out at 0.419 nM.

B3: 117_101Y (antibody, V domains shown)
VH: B1 VH with F101Y
VL: B1 VL with T50Y, S51A, Y91H, Y92S, T93N, L94A, F96L
notes: full-length IgG, human kappa
In the case of B3, the EC50 in assay [13] worked out at 0.355 nM.

B4: 57T (antibody, V domains shown)
VH: B1 VH with Y57T
VL: B1 VL with T50Y, S51A, Y91H, Y92S, T93N, L94A, F96L
notes: the sheet prints only 57T
As for B4, the binding result in assay [14] is recorded as “no binding (tested: about 20 nM)”.

B5: A8A (antibody, human IgG1, kappa, N297A, V domains shown)
VH: B1 VH
VL: B1 VL with T50Y, S51A, T52N, Y91H, Y92S, T93N, F96L
notes: Full-length human IgG1-N297A, kappa; also called A8A (IgG1)
Regarding B5, in assay [2], the Kd was determined as 3.42 nM, the koff stood at 0.00462 s⁻¹ and the on-rate constant (kon) is 1.35e+06 M⁻¹ s⁻¹. Besides, in assay [3], the EC50 was determined as 0.94 nM. Moreover, the EC50 in assay [6] was 5.17 nM.

B6: 117_101H (antibody, V domains shown)
VH: B1 VH with F101H
VL: B1 VL with T50Y, S51A, Y91H, Y92S, T93N, L94A, F96L
notes: full-length IgG, human kappa
As to B6, the EC50 in assay [13] stood at 1.6 nM.

B7: 117_101S (antibody, V domains shown)
VH: B1 VH with F101S
VL: B1 VL with T50Y, S51A, Y91H, Y92S, T93N, L94A, F96L
notes: full-length IgG, human kappa
B7: the EC50 in assay [13] was 0.929 nM.

For orientation: EC50 means the concentration at which the effect is half-maximal. As a reminder, the Kd is the equilibrium constant for the complex coming apart. The koff is a measure of how fast the partners let go of each other. In general, kon refers to the second-order rate constant of association.
